From patent publication US20060009622A1 (ADMINISTRATORS OF THE TULANE EDUCATIONAL FUND, published 2006)
Numbered stars: 1 amine (or outer) side, 2 acyl side, 3 side chain; on linkers, the order of the positions; unused ones are H or OH. Bridge positions count the residues as written; N and C are the ends. Square brackets hold non-standard residues; d marks the D form. Ends that are not written are not given here. NGly(2-(methylamino)ethyl) = CN(CCN(CC(=O)[*:2])[*:1])[*:3]; N(2-Aminoethyl)Gly = O=C(CN(CCN[*:3])[*:1])[*:2]; Nle = CCCC[C@H](N)C(=O)O

B1: camptothecin-carbonyl-N-(N-methyl-2-aminoethyl)-glycine-D-Ser-Nle-D-Tyr-D-Ser-cyclo[Cys-Phe-D-Trp-Lys-Thr-Cys]-Thr-amide (peptide)
peptide: [NGly(2-(methylamino)ethyl)][dS][Nle][dY][dS]CF[dW]KTCT-NH2
modifications: disulfide 6-11; not fully specified (N-terminus); printed as camptothecin-carbonyl-N-(N-methyl-2-aminoethyl)-glycine-D-Ser-Nle-D-Tyr-D-Ser-cyclo[Cys-Phe-D-Trp-Lys-Thr-Cys]-Thr-amide
B2: camptothecin-carbonyl-N-(2-aminoethyl)-glycine-D-Ser-Nle-D-Tyr-D-Ser-cyclo[Cys-Phe-D-Trp-Lys-Thr-Cys]-Thr-amide (peptide)
peptide: [N(2-Aminoethyl)Gly][dS][Nle][dY][dS]CF[dW]KTCT-NH2
modifications: disulfide 6-11; not fully specified (N-terminus); printed as camptothecin-carbonyl-N-(2-aminoethyl)-glycine-D-Ser-Nle-D-Tyr-D-Ser-cyclo[Cys-Phe-D-Trp-Lys-Thr-Cys]-Thr-amide
B3: combretastatin-carbonyl-N-(2-aminoethyl)-glycine-D-Ser-Nle-D-Tyr-D-Ser-cyclo[Cys-Phe-D-Trp-Lys-Thr-Cys]-Thr-amide (peptide)
peptide: [N(2-Aminoethyl)Gly][dS][Nle][dY][dS]CF[dW]KTCT-NH2
modifications: disulfide 6-11; not fully specified (N-terminus); printed as combretastatin-carbonyl-N-(2-aminoethyl)-glycine-D-Ser-Me-D-Tyr-D-Ser-cyclo[Cys-Phe-D-Trp-Lys-Thr-Cys]-Thr-amide

Each molecule was assayed against human type 2 somatostatin receptor (human, UniProt P30874 1-369, limits assumed) (assay: cell-based or functional assay).
Chain of human type 2 somatostatin receptor (P30874 whole entry): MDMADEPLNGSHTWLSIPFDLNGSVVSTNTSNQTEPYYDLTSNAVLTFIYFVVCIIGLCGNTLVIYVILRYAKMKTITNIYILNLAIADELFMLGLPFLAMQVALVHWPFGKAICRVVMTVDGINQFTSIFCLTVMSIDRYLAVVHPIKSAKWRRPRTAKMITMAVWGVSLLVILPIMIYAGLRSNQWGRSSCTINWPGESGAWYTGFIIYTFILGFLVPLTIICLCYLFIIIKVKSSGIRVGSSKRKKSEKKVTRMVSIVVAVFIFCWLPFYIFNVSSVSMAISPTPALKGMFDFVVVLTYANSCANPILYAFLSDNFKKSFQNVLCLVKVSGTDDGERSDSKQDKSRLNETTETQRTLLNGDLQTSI

In order of falling Growth Hormone Inhibition IC50, nM (inhibition of GNRH-stimulated GH release from monolayer cultures of rat pituitary cells):
1. somatostatin-14 (from UniProt P61278 89-116) (peptide)  0.63 nM
2. B2  0.32 nM
3. B3  0.31 nM
4. B1  0.27 nM
